Test results from patent US20040219163.

Biological target: prostate-specific antigen (PSA) (UniProt P07288)
Sequence (P07288 25-261): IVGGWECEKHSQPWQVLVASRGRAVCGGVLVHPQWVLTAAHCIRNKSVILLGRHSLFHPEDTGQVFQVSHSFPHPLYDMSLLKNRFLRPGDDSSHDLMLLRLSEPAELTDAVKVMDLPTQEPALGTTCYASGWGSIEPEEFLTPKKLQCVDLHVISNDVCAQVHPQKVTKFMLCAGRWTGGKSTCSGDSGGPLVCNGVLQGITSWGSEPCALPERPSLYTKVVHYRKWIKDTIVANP

Human glandular kallikrein (hK2)
PSA enzymatic activity on chromogenic substrate S-2586 (absorbance at 405 nm); 100 ng hK2 added to 2.5 ug PSA from L1/PSA/IL2 supernatant: The activity of PSA is increased 500% when incubated with hK2
